We go through one molecule from PMC11420629 (2024).

The target in this assay is T1, GluR1 carboxy‐terminal region (SPR).
T1 chain: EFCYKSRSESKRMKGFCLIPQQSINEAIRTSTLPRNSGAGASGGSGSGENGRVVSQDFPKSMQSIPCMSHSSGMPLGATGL
In words: SPR.

B1: full‐length CIRP protein (SPR) (natural protein)
chain: MASDEGKLFVGGLSFDTNEQALEQVFSKYGQISEVVVVKDRETQRSRGFGFVTFENIDDAKDAMMAMNGKSVDGRQIRVDQAGKSSDNRSRGYRGGSAGGRGFFRGGRSRGRGFSRGGGDRGYGGGRFESRSGGYGGSRDYYASRSQGGSYGYRSSGGSYRDSYDSYATHNE
The Kd is the constant that tells how readily two partners part at equilibrium. For the molecule B1, the Kd is 1010 nM.
